Values belong to the binder of their own block, whether it stands above or below them. Numbered stars: 1 amine (or outer) side, 2 acyl side, 3 side chain; on linkers, the order of the positions; unused ones are H or OH. * marks the point of attachment. C20 diacid = O=C(O)CCCCCCCCCCCCCCCCCCC(=O)*; C18 diacid = O=C(O)CCCCCCCCCCCCCCCCC(=O)*; γGlu = O=C(O)[C@H](CCC(=O)[*:2])N[*:1]
What was measured:
[1] = biological target: T1, human amylin 3(a) receptor (human calcitonin receptor co-expressed with RAMP-3) on BHK570/CRE-luc cells (human, UniProt P30988 25-474; O60896 24-148); assay: cell-based or functional assay
T1 sequence (looked up) 1: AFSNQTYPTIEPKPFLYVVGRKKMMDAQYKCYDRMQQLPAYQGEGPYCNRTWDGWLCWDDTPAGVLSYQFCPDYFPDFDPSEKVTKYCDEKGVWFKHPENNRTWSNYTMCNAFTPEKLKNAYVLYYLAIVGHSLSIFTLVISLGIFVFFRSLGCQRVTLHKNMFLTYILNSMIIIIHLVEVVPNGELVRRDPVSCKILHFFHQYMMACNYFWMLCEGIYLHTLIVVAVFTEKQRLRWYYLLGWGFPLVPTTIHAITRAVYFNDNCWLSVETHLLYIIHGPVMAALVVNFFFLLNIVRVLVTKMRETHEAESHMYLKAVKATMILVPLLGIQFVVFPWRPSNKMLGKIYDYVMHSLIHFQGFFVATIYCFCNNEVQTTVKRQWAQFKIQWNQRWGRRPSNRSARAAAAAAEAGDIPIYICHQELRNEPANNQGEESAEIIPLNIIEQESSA
T1 sequence (looked up) 2: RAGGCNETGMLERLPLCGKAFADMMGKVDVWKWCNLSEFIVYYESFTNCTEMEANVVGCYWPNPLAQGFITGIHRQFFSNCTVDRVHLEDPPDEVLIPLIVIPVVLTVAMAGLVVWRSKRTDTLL

[2] = biological target: T2, human calcitonin receptor on BHK570/CRE-luc cells (human, UniProt P30988 25-474); assay: cell-based or functional assay
T2 sequence (looked up): T1 sequence (looked up) 1

hAmylin-R funct. EC50 (pM), tested with HSA [1]: 38 pM
hCTR funct. EC50 (pM), tested with HSA [2]: 11 pM
B1: [N-terminal(C18 diacid-gGlu), des1, 5V, 9V, 10V, 30S, 31G]mimylin (peptide)
peptide: {C18 diacid-γGlu}-ASEVSTAVVGRLSAELHELATLPRTETGSGSP-NH2
SMILES: CC(C)C[C@H](NC(=O)[C@H](CCC(=O)O)NC(=O)[C@H](Cc1c[nH]cn1)NC(=O)[C@H](CC(C)C)NC(=O)[C@H](CCC(=O)O)NC(=O)[C@H](C)NC(=O)[C@H](CO)NC(=O)[C@H](CC(C)C)NC(=O)[C@H](CCCNC(=N)N)NC(=O)CNC(=O)[C@@H](NC(=O)[C@@H](NC(=O)[C@H](C)NC(=O)[C@@H](NC(=O)[C@H](CO)NC(=O)[C@@H](NC(=O)[C@H](CCC(=O)O)NC(=O)[C@H](CO)NC(=O)[C@H](C)NC(=O)CC[C@H](NC(=O)CCCCCCCCCCCCCCCCC(=O)O)C(=O)O)C(C)C)[C@@H](C)O)C(C)C)C(C)C)C(=O)N[C@@H](C)C(=O)N[C@H](C(=O)N[C@@H](CC(C)C)C(=O)N1CCC[C@H]1C(=O)N[C@@H](CCCNC(=N)N)C(=O)N[C@H](C(=O)N[C@@H](CCC(=O)O)C(=O)N[C@H](C(=O)NCC(=O)N[C@@H](CO)C(=O)NCC(=O)N[C@@H](CO)C(=O)N1CCC[C@H]1C(N)=O)[C@@H](C)O)[C@@H](C)O)[C@@H](C)O

hAmylin-R funct. EC50 (pM), tested with HSA [1]: 976 pM
hCTR funct. EC50 (pM), tested with HSA [2]: 418 pM
B2: [N-terminal(C20 diacid-gGlu), des1, 23Y, 30S, 31G, 33Y, C-terminal(-)]mimylin (peptide)
peptide: {C20 diacid-γGlu}-ASELSTAALGRLSAELHELATYPRTETGSGSY-OH

hAmylin-R funct. EC50 (pM), tested with HSA [1]: 209 pM
hCTR funct. EC50 (pM), tested with HSA [2]: 53 pM
B3: [N-terminal(C20 diacid-gGlu), des1, 23Y, 30S, 31G, 34K, C-terminal(-)]mimylin (peptide)
peptide: {C20 diacid-γGlu}-ASELSTAALGRLSAELHELATYPRTETGSGSPK-OH
SMILES: CC(C)C[C@H](NC(=O)[C@H](C)NC(=O)[C@H](C)NC(=O)[C@@H](NC(=O)[C@H](CO)NC(=O)[C@H](CC(C)C)NC(=O)[C@H](CCC(=O)O)NC(=O)[C@H](CO)NC(=O)[C@H](C)NC(=O)CC[C@H](NC(=O)CCCCCCCCCCCCCCCCCCC(=O)O)C(=O)O)[C@@H](C)O)C(=O)NCC(=O)N[C@@H](CCCNC(=N)N)C(=O)N[C@@H](CC(C)C)C(=O)N[C@@H](CO)C(=O)N[C@@H](C)C(=O)N[C@@H](CCC(=O)O)C(=O)N[C@@H](CC(C)C)C(=O)N[C@@H](Cc1c[nH]cn1)C(=O)N[C@@H](CCC(=O)O)C(=O)N[C@@H](CC(C)C)C(=O)N[C@@H](C)C(=O)N[C@H](C(=O)N[C@@H](Cc1ccc(O)cc1)C(=O)N1CCC[C@H]1C(=O)N[C@@H](CCCNC(=N)N)C(=O)N[C@H](C(=O)N[C@@H](CCC(=O)O)C(=O)N[C@H](C(=O)NCC(=O)N[C@@H](CO)C(=O)NCC(=O)N[C@@H](CO)C(=O)N1CCC[C@H]1C(=O)N[C@@H](CCCCN)C(=O)O)[C@@H](C)O)[C@@H](C)O)[C@@H](C)O

hAmylin-R funct. EC50 (pM), tested with HSA [1]: 81 pM
hCTR funct. EC50 (pM), tested with HSA [2]: 42 pM
B4: [N-terminal(C20 diacid-gGlu), des1, 9S, 23Y, 30S, 31G, 33Y]mimylin (peptide)
peptide: {C20 diacid-γGlu}-ASELSTASLGRLSAELHELATYPRTETGSGSY-NH2
SMILES: CC(C)C[C@H](NC(=O)[C@H](CO)NC(=O)[C@H](C)NC(=O)[C@@H](NC(=O)[C@H](CO)NC(=O)[C@H](CC(C)C)NC(=O)[C@H](CCC(=O)O)NC(=O)[C@H](CO)NC(=O)[C@H](C)NC(=O)CC[C@H](NC(=O)CCCCCCCCCCCCCCCCCCC(=O)O)C(=O)O)[C@@H](C)O)C(=O)NCC(=O)N[C@@H](CCCNC(=N)N)C(=O)N[C@@H](CC(C)C)C(=O)N[C@@H](CO)C(=O)N[C@@H](C)C(=O)N[C@@H](CCC(=O)O)C(=O)N[C@@H](CC(C)C)C(=O)N[C@@H](Cc1c[nH]cn1)C(=O)N[C@@H](CCC(=O)O)C(=O)N[C@@H](CC(C)C)C(=O)N[C@@H](C)C(=O)N[C@H](C(=O)N[C@@H](Cc1ccc(O)cc1)C(=O)N1CCC[C@H]1C(=O)N[C@@H](CCCNC(=N)N)C(=O)N[C@H](C(=O)N[C@@H](CCC(=O)O)C(=O)N[C@H](C(=O)NCC(=O)N[C@@H](CO)C(=O)NCC(=O)N[C@@H](CO)C(=O)N[C@@H](Cc1ccc(O)cc1)C(N)=O)[C@@H](C)O)[C@@H](C)O)[C@@H](C)O

hAmylin-R funct. EC50 (pM), tested with HSA [1]: 52 pM
hCTR funct. EC50 (pM), tested with HSA [2]: 13 pM
B5: [N-terminal(C18 diacid-gGlu), des1, 6T, 9V, 30T, 31G, 32T]mimylin (peptide)
peptide: {C18 diacid-γGlu}-ASELTTAVLGRLSAELHELATLPRTETGTGTP-NH2

hAmylin-R funct. EC50 (pM), tested with HSA [1]: 210 pM
hCTR funct. EC50 (pM), tested with HSA [2]: 50 pM
B6: [N-terminal(C20 diacid-gGlu), des1, 23Y, 30S, 31G, 34G, C-terminal(-)]mimylin (peptide)
peptide: {C20 diacid-γGlu}-ASELSTAALGRLSAELHELATYPRTETGSGSPG-OH
SMILES: CC(C)C[C@H](NC(=O)[C@H](C)NC(=O)[C@H](C)NC(=O)[C@@H](NC(=O)[C@H](CO)NC(=O)[C@H](CC(C)C)NC(=O)[C@H](CCC(=O)O)NC(=O)[C@H](CO)NC(=O)[C@H](C)NC(=O)CC[C@H](NC(=O)CCCCCCCCCCCCCCCCCCC(=O)O)C(=O)O)[C@@H](C)O)C(=O)NCC(=O)N[C@@H](CCCNC(=N)N)C(=O)N[C@@H](CC(C)C)C(=O)N[C@@H](CO)C(=O)N[C@@H](C)C(=O)N[C@@H](CCC(=O)O)C(=O)N[C@@H](CC(C)C)C(=O)N[C@@H](Cc1c[nH]cn1)C(=O)N[C@@H](CCC(=O)O)C(=O)N[C@@H](CC(C)C)C(=O)N[C@@H](C)C(=O)N[C@H](C(=O)N[C@@H](Cc1ccc(O)cc1)C(=O)N1CCC[C@H]1C(=O)N[C@@H](CCCNC(=N)N)C(=O)N[C@H](C(=O)N[C@@H](CCC(=O)O)C(=O)N[C@H](C(=O)NCC(=O)N[C@@H](CO)C(=O)NCC(=O)N[C@@H](CO)C(=O)N1CCC[C@H]1C(=O)NCC(=O)O)[C@@H](C)O)[C@@H](C)O)[C@@H](C)O

hAmylin-R funct. EC50 (pM), tested with HSA [1]: 150 pM
hCTR funct. EC50 (pM), tested with HSA [2]: 105 pM
B7: [N-terminal(C20 diacid-gGlu), des1, 9T, 21S, 23Y, 30S, 31G]mimylin (peptide)
peptide: {C20 diacid-γGlu}-ASELSTATLGRLSAELHELSTYPRTETGSGSP-NH2
SMILES: CC(C)C[C@H](NC(=O)[C@H](CCCNC(=N)N)NC(=O)CNC(=O)[C@H](CC(C)C)NC(=O)[C@@H](NC(=O)[C@H](C)NC(=O)[C@@H](NC(=O)[C@H](CO)NC(=O)[C@H](CC(C)C)NC(=O)[C@H](CCC(=O)O)NC(=O)[C@H](CO)NC(=O)[C@H](C)NC(=O)CC[C@H](NC(=O)CCCCCCCCCCCCCCCCCCC(=O)O)C(=O)O)[C@@H](C)O)[C@@H](C)O)C(=O)N[C@@H](CO)C(=O)N[C@@H](C)C(=O)N[C@@H](CCC(=O)O)C(=O)N[C@@H](CC(C)C)C(=O)N[C@@H](Cc1c[nH]cn1)C(=O)N[C@@H](CCC(=O)O)C(=O)N[C@@H](CC(C)C)C(=O)N[C@@H](CO)C(=O)N[C@H](C(=O)N[C@@H](Cc1ccc(O)cc1)C(=O)N1CCC[C@H]1C(=O)N[C@@H](CCCNC(=N)N)C(=O)N[C@H](C(=O)N[C@@H](CCC(=O)O)C(=O)N[C@H](C(=O)NCC(=O)N[C@@H](CO)C(=O)NCC(=O)N[C@@H](CO)C(=O)N1CCC[C@H]1C(N)=O)[C@@H](C)O)[C@@H](C)O)[C@@H](C)O

hAmylin-R funct. EC50 (pM), tested with HSA [1]: 729 pM
hCTR funct. EC50 (pM), tested with HSA [2]: 109 pM
B8: [N-terminal(C20 diacid-gGlu), des1, 12H, 25H, 30T, 31G, 32T]mimylin (peptide)
peptide: {C20 diacid-γGlu}-ASELSTAALGHLSAELHELATLPHTETGTGTP-NH2
SMILES: CC(C)C[C@H](NC(=O)[C@H](C)NC(=O)[C@H](C)NC(=O)[C@@H](NC(=O)[C@H](CO)NC(=O)[C@H](CC(C)C)NC(=O)[C@H](CCC(=O)O)NC(=O)[C@H](CO)NC(=O)[C@H](C)NC(=O)CC[C@H](NC(=O)CCCCCCCCCCCCCCCCCCC(=O)O)C(=O)O)[C@@H](C)O)C(=O)NCC(=O)N[C@@H](Cc1c[nH]cn1)C(=O)N[C@@H](CC(C)C)C(=O)N[C@@H](CO)C(=O)N[C@@H](C)C(=O)N[C@@H](CCC(=O)O)C(=O)N[C@@H](CC(C)C)C(=O)N[C@@H](Cc1c[nH]cn1)C(=O)N[C@@H](CCC(=O)O)C(=O)N[C@@H](CC(C)C)C(=O)N[C@@H](C)C(=O)N[C@H](C(=O)N[C@@H](CC(C)C)C(=O)N1CCC[C@H]1C(=O)N[C@@H](Cc1c[nH]cn1)C(=O)N[C@H](C(=O)N[C@@H](CCC(=O)O)C(=O)N[C@H](C(=O)NCC(=O)N[C@H](C(=O)NCC(=O)N[C@H](C(=O)N1CCC[C@H]1C(N)=O)[C@@H](C)O)[C@@H](C)O)[C@@H](C)O)[C@@H](C)O)[C@@H](C)O

hAmylin-R funct. EC50 (pM), tested with HSA [1]: 30 pM
hCTR funct. EC50 (pM), tested with HSA [2]: 75 pM
B9: [N-terminal(C18 diacid-gGlu), des1, 6T, 9V, 30S, 31G, 32T]mimylin (peptide)
peptide: {C18 diacid-γGlu}-ASELTTAVLGRLSAELHELATLPRTETGSGTP-NH2

Reference: US20160272683A1 (Novo Nordisk, published 2016)
